This note sets out measurements from patent publication US6573364 (CURAGEN, dated 2003).

B1: BMK1 alpha kinase, prey insert starting at nucleotide 2431 of GenBank U29725, fused to the Gal4 DNA binding domain (other, yeast)
chain: MKLLSSIEQACDICRLKKLKCSKEKPKCAKCLKNNWECRYSPKTKRSPLTRAHLTEVESRLERLEQLFLLIFPREDLDMILKMDSLQDIKALLTGLFVQDNVNKDAVTDRLASVETDMPLTLRQHRISATSSSEESSNKGQRQLTVSGAGYGVGFDLEEFLNQSFDMGVADGPQDGQADSASLSASLLADWLEGHGMNPADIESLQREIQMDSPMLLADLPDLQDP
notes: Prey of the reverse screen, 2 isolates; Residue limits derived from the printed nucleotide start
B2: 14-3-3 protein eta isoform, prey insert starting at nucleotide 764 of GenBank X80536, fused to the Gal4 DNA binding domain (other, yeast)
chain: MKLLSSIEQACDICRLKKLKCSKEKPKCAKCLKNNWECRYSPKTKRSPLTRAHLTEVESRLERLEQLFLLIFPREDLDMILKMDSLQDIKALLTGLFVQDNVNKDAVTDRLASVETDMPLTLRQHRISATSSSEESSNKGQRQLTVSQACLLAKQAFDDAIAELDTLNEDSYKDSTLIMQLLRDNLTLWTSDQQDEEAGEGN
notes: Prey from a human fetal brain cDNA library, reverse screens; Residue limits derived from the printed nucleotide start; also called 14-3-3 eta
B3: HPS protein fragment 1272-2357 fused to the Gal4 activator domain (reverse screen) (other)
chain: NVKESYCPLVPHTMYCLPLWQGINLVLLTRSPSAPLALVLSQLMDGFSMLEKKLKEGPEPGASLRSQPLVGDLRQRMDKFVKNRGAQEIQSTWLEFKAKAFSKSEPGSSWELLQACGKLKRQLCAIYRLNFLTTAPSRGGPHLPQHLQDQVQRLMREKLTDWKDFLLVKSRRNITMVSYLEDFPGLVHFIYVDRTTGQMVAPSLNCSQKTSSELGKGPLAAFVKTKVWSLIQLARRYLQKGYTTLLFREGDFYCSYFLWFENDMGYKLQMIEVPVLSDDSVPIGMLGGDYYRKLLRYYSKNRPTEAVRCYELLALHLSVIPTDLLVQQAGQLARRLWEASRIPLL
notes: Codes for the same HPS residues as the 1272-2306 construct but is a separate construct; also called HPS protein domain 1272-2357; HPS U65676 1272-2357; not shown: order of the two pie
B4: HPS protein fragment 210-1292 fused to the Gal4 activator domain (reverse screen) (other)
chain: KCVLVATEGAEVLFYWTDQEFEESLRLKFGQSENEEEELPALEDQLSTLLAPVIISSMTMLEKLSDTYTCFSTENGNFLYVLHLFGECLFIAINGDHTESEGDLRRKLYVLKYLFEVHFGLVTVDGHLIRKELRPPDLAQRVQLWEHFQSLLWTYSRLREQEQCFAVEALERLIHPQLCELCIEALERHVIQAVNTSPERGGEEALHAFLLVHSKLLAFYSSHSASSLRPADLLALILLVQDLYPSESTAEDDIQPSPRRARSSQNIPVQQAWSPHSTGPTGGSSAETETDSFSLPEEYFTPAPSPGDQSSGSTIWLEGGTPPMDALQIAEDTLQTLVPHCPVPSGPRRIFLDANVKESYC
notes: Residue limits are derived from the printed nucleotide limits; also called HPS protein domain 210-1292; HPS U65676 210-1292; not shown: order of the two pie
B5: HPIP1 (prey sequence of 619 nucleotides, interaction starting at nucleotide 1) fused to the Gal4 activator domain (other, not shown: large carriers)
chain: GTRLSINPNNHSWLIIQADIYFATNQYSAALHYYLQAGAVCSDFFNKAVPPDVYTDQVIKRMIKCCSLLNCHTQVAILCQFLREIDYKTAFKSLQEQNSHDAMDSYYDYIWDVTILEYLTYLHHKRGETDKRQIAIKAIGQTELNASNPEEVLQLAAQRRKKKFLQAMAKLYF
notes: Prey of the forward screen, 3 identical clones from a human fetal brain cDNA library; also called cg49368.b1; cg49367.h11

Assay [1] concerns the target B4. Briefly: yeast two-hybrid, reverse screen; listed in Table I as an interaction with HPS 210-1292, 2 isolates. On the procedure: (§1) The two mating strains ([…]) were then diluted in YAPD media (see Id.) filtered onto nitrocellulose membranes and incubated at 30° C. for 6–8 hours. […] The mating products were plated on synthetic complete (SC) media (see Kaiser, Michaelis & Mitchell, Eds., 1994. *Methods in Yeast Genetics*, 1994 *Ed.* (Cold Spring Harbor Laboratory Press, New York, N.Y.) lacking adenine and lysine (to select for successful mating), leucine and tryptophan (to select for expression of genes encoded by both the bait and prey plasmids), and uracil and histidine (to select for protein interactions). This medium is hereinafter referred to as SCS medium, for SC Selective medium.
(§2) Selected clones were subsequently examined for expression of β-galactosidase to confirm the formation of an HPS protein•HPS protein-IP interaction. […]
(§3) The cells contained within colonies which were "positive" for protein interaction contained a mixture of DNA-binding and activation-domain plasmids. […] Approximately 10 μl of each selected isolate was lysed, the inserts within the pAD-GAL4 or pGAD-GH for the activation domain plasmids and pBD-GAL4 or pGBT9BS plasmids were PCR amplified using primers specific for the flanking sequences of each vector and approximately 300 nucleotides (of what would be the protein's amino-terminus following translation) was determined using an ABI 377 sequenator. […]

In assay [2] the target is B3. Briefly: yeast two-hybrid, reverse screen; listed in Table I as an interaction with HPS 1272-2357, 1 isolate. As for the experimental part: as §1, §2, §3
Assay [3] concerns the target T1, HPS protein fragment 1272-2306 fused to the Gal4 activator domain (reverse screen) (yeast; human, UniProt Q92902 356-700).
T1 construct: Residue limits are derived from the printed nucleotide limits; also called HPS protein domain comprised of nucleotides 1272-2306; HPS U65676 1272-2306; not shown: order of the two pie
T1 sequence: B3 chain
Briefly: yeast two-hybrid, reverse screen; listed in Table I as an interaction with HPS 1272-2306, 1 isolate. As for the experimental part:
as §1, §2, §3

Assay [4] addresses T2, CDK2, prey insert starting at nucleotide 4 of GenBank X61622, fused to the Gal4 DNA binding domain (yeast; human, UniProt P04386 1-147).
T2 construct: Prey of the reverse screen; Residue limits derived from the printed nucleotide start; also called CDK2 X61622 4-*
Briefly: yeast two-hybrid, reverse screen; listed in Table I as an interaction with HPS 1272-2357, 1 isolate. As for the experimental part: as §1, §2, §3

In assay [5] the target is T3, Atrophin-1, prey insert starting at nucleotide 2649 of GenBank U23851, fused to the Gal4 DNA binding domain (yeast; human, UniProt P04386 1-147).
T3 construct: Prey of the reverse screen; Residue limits derived from the printed nucleotide start; also called Atrophin I; atrophin-I
Briefly: yeast two-hybrid, reverse screen; listed in Table I as an interaction with HPS 210-1292, 1 isolate. On the procedure:
as §1, §2, §3

Assay [6] concerns the target T4, HPS protein bait fragment 210-1292 fused to the Gal4 DNA binding domain (forward screen) (yeast; human, UniProt P04386 1-147).
T4 construct: Residue limits are derived from the printed nucleotide limits; also called Hermansky-Pudlak Syndrome protein; HPS U65676 210-1292
Briefly: yeast two-hybrid, forward screen; listed in Table I as an interaction with HPS 210-1292, 3 isolates. As for the experimental part:
as §1, §2, §3

Turning to B1, the binding result in assay [1] is listed as “binds”.

With B2, the binding result in assay [2] and in assay [3] was “binds” throughout.

For B3, in assay [4], the binding result is “binds”.

Consider B4, for which the binding result in assay [5] was “binds”.

On to B5, for which the binding result in assay [6] is listed as “binds”.
